Columns and labels:
[1] = target: T1, HER3 (UniProt P21860 20-1342, limits assumed); test: flow cytometry, serial dilution on BT-474 cells (HER3-expressing), PE anti-His detection
T1 construct: whole, on cells; the cell lines are human tumor lines
Protocol: (§1) Cell binding studies were performed by flow cytometry using cell lines with different expression levels of HER3 (Table 1). Adherent cells were washed with PBS and shortly trypsinized at 37° C. Trypsin was quenched with FCS-containing medium and removed by centrifugation (500×g, 5 min.). 1×10⁵ target cells (MCF-7, Jurkat, BT-474, FaDu, or LIM1215) were incubated with a serial dilution of recombinant proteins for 1 hour at 4° C. Bound protein was detected using a PE-conjugated anti-hexahistidyl tag mAb (Miltenyi Biotec). Incubation and washing steps were performed in PBS, 2% FBS, and 0.02% sodium azide. Fluorescence was measured by MACSQuant VYB (Miltenyi Biotec) and data were analyzed using FlowJo (Tree Star). Relative median fluorescence intensities (MFI) were calculated as followed: relative MFI=((MFIₛₐₘₚₗₑ−(MFIdetection−MFIcells))/MFIcells).

[2] = target: T1, HER3; test: cell-based or functional assay
[3] = target: T1, HER3; test: flow cytometry, serial dilution on LIM1215 cells (HER3-expressing), PE anti-His detection
Protocol: as §1

[4] = target: T1, HER3; test: cell-based or functional assay; remark: listed apart in the source
[5] = target: T1, HER3; test: flow cytometry, serial dilution on FaDu cells (HER3-expressing), PE anti-His detection
Protocol: as §1

[6] = target: T2, CD3 (UniProt P07766 23-207); test: flow cytometry, serial dilution on Jurkat cells (CD3-expressing), PE anti-His detection
T2 construct: whole, on cells; on cells it stands in the TCR/CD3 complex; also called CD3 on Jurkat cells
Protocol: as §1

[7] = target: T1, HER3; test: flow cytometry, serial dilution on MCF-7 cells (HER3-expressing), PE anti-His detection
Protocol: as §1

[8] = target: T1, HER3; test: flow cytometry on HER3-expressing cell lines, EC50 compared with scDb-scFv
Protocol: as §1

B1: scDb3-43xhuU3-scFv3-43-His (bispecific antibody)
chain: QVQLQQSGPGLVKPSQTLSLTCAISGDSVSSNRAAWNWIRQSPSRGLEWLGRTYYRSKWYNDYAQSLKSRITINPDTPKNQFSLQLNSVTPEDTAVYYCARDGQLGLDALDIWGQGTMVTVSSGGGGSDIQMTQSPSSLSASVGDRVTITCRASQDIRNYLNWYQQKPGKAPKLLIYYTSRLHSGVPSRFSGSGSGTDFTFTISSLQPEDIATYYCQQGNTLPWTFGQGTKLEIKRGGGGSGGGGSGGGGSQVQLVQSGAEVKKPGSSVKVSCKASGGTFSGYTMNWVRQAPGQGLEWMGLINPYKGVSTYNGKFKDRVTITADKSTSTAYMELSSLRSEDTAVYYCARSGYYGDSDWYFDVWGQGTLVTVSSGGGGSQAGLTQPPAVSVAPGQTASITCGRDNIGSRSVHWYQQKPGQAPVLVVYDDSDRPAGIPERFSGSNYENTATLTISRVEAGDEADYYCQVWGITSDHVVFGGGTKLTVLAAAGGSGGGGSGGGTQVQLQQSGPGLVKPSQTLSLTCAISGDSVSSNRAAWNWIRQSPSRGLEWLGRTYYRSKWYNDYAQSLKSRITINPDTPKNQFSLQLNSVTPEDTAVYYCARDGQLGLDALDIWGQGTMVTVSSGGGGSGGGGSGGGGSQAGLTQPPAVSVAPGQTASITCGRDNIGSRSVHWYQQKPGQAPVLVVYDDSDRPAGIPERFSGSNYENTATLTISRVEAGDEADYYCQVWGITSDHVVFGGGTKLTVLGSLHHHHHH
notes: Single chain, trivalent: two HER3 sites (3-43) and one CD3 site (huU3); The His tag is part of the entry; also called scDb-scFv; trivalent anti-HER3×anti-CD3 bsAb
Question: Which results are given for B1?
Answer: EC50 [1]: 200 pM; EC50 of PBMC cytotoxicity on BT-474 cells, E:T 5:1 [2]: 2 pM; EC50 of PBMC cytotoxicity on BT-474 cells, E:T 10:1 [2]: 7 pM; EC50 of PBMC cytotoxicity on FaDu cells, E:T 5:1 [2]: 200 pM; EC50 of PBMC cytotoxicity on FaDu cells, E:T 10:1 [2]: 100 pM; EC50 of PBMC cytotoxicity on LIM1215 cells, E:T 5:1 [2]: 3 pM; EC50 of PBMC cytotoxicity on LIM1215 cells, E:T 10:1 [2]: 1 pM; EC50 of PBMC cytotoxicity on MCF-7 cells, E:T 5:1 [2]: 3 pM; EC50 of PBMC cytotoxicity on MCF-7 cells, E:T 10:1 [2]: 1 pM; EC50 [3]: 200 pM; EC50 of CD69 expression on CD4+ T-cells (CD4+CD69+), MCF-7 co-culture [4]: 3 pM; EC50 of CD69 expression on CD8+ T-cells (CD8+CD69+), MCF-7 co-culture [4]: 20 pM; EC50 of IFN-γ release, PBMCs co-cultured with MCF-7 cells [4]: 567 pM; EC50 of IL-2 release, PBMCs co-cultured with MCF-7 cells [4]: 403 pM; EC50 of proliferation of CD4+ T-cells, MCF-7 co-culture [4]: 80 pM; EC50 of proliferation of CD8+ T-cells, MCF-7 co-culture [4]: 90 pM; EC50 [5]: 100 pM; EC50 [6]: 4000 pM; EC50 [7]: 30 pM

B2: scDb3-43xhuU3-His (bispecific antibody)
chain: QVQLQQSGPGLVKPSQTLSLTCAISGDSVSSNRAAWNWIRQSPSRGLEWLGRTYYRSKWYNDYAQSLKSRITINPDTPKNQFSLQLNSVTPEDTAVYYCARDGQLGLDALDIWGQGTMVTVSSGGGGSDIQMTQSPSSLSASVGDRVTITCRASQDIRNYLNWYQQKPGKAPKLLIYYTSRLHSGVPSRFSGSGSGTDFTFTISSLQPEDIATYYCQQGNTLPWTFGQGTKLEIKRGGGGSGGGGSGGGGSQVQLVQSGAEVKKPGSSVKVSCKASGGTFSGYTMNWVRQAPGQGLEWMGLINPYKGVSTYNGKFKDRVTITADKSTSTAYMELSSLRSEDTAVYYCARSGYYGDSDWYFDVWGQGTLVTVSSGGGGSQAGLTQPPAVSVAPGQTASITCGRDNIGSRSVHWYQQKPGQAPVLVVYDDSDRPAGIPERFSGSNYENTATLTISRVEAGDEADYYCQVWGITSDHVVFGGGTKLTVLAAAHHHHHH
notes: Single-chain diabody, bivalent: one HER3 site (3-43) and one CD3 site (huU3, humanized UCHT1); The His tag is part of the entry; also called anti-HER3×CD3 bispecific scDb
Question: B2 was tested. Which “fold weaker binding than scDb-scFv” value [8] did it give?
Answer: ≤ 50 fold

Question: What about the EC50 [1] of the same binder?
Answer: 9700 pM

Question: What about the “EC50 of PBMC cytotoxicity on BT-474 cells, E:T 5:1” value [2] of the same binder?
Answer: 170 pM

Question: What about the “EC50 of PBMC cytotoxicity on BT-474 cells, E:T 10:1” value [2] of the same binder?
Answer: 200 pM

Question: And the “EC50 of PBMC cytotoxicity on FaDu cells, E:T 5:1” value [2]?
Answer: 400 pM

Question: What about the “EC50 of PBMC cytotoxicity on FaDu cells, E:T 10:1” value [2] of the same binder?
Answer: 300 pM

Question: What about the “EC50 of PBMC cytotoxicity on LIM1215 cells, E:T 5:1” value [2] of the same binder?
Answer: 80 pM

Question: And the “EC50 of PBMC cytotoxicity on LIM1215 cells, E:T 10:1” value [2]?
Answer: 30 pM

Question: What about the “EC50 of PBMC cytotoxicity on MCF-7 cells, E:T 5:1” value [2] of the same binder?
Answer: 70 pM

Question: And the “EC50 of PBMC cytotoxicity on MCF-7 cells, E:T 10:1” value [2]?
Answer: 14 pM

Question: What about the EC50 [3] of the same binder?
Answer: 11700 pM

Question: What about the “EC50 of CD69 expression on CD4+ T-cells (CD4+CD69+), MCF-7 co-culture” value [4] of the same binder?
Answer: 100 pM

Question: What about the “EC50 of CD69 expression on CD8+ T-cells (CD8+CD69+), MCF-7 co-culture” value [4] of the same binder?
Answer: 160 pM

Question: And the “EC50 of IFN-γ release, PBMCs co-cultured with MCF-7 cells” value [4]?
Answer: 609 pM

Question: What about the “EC50 of IL-2 release, PBMCs co-cultured with MCF-7 cells” value [4] of the same binder?
Answer: 404 pM

Question: And the “EC50 of proliferation of CD4+ T-cells, MCF-7 co-culture” value [4]?
Answer: 500 pM

Question: And the “EC50 of proliferation of CD8+ T-cells, MCF-7 co-culture” value [4]?
Answer: 300 pM

Question: What about the EC50 [6] of the same binder?
Answer: 1640 pM

Question: What about the EC50 [7] of the same binder?
Answer: 4700 pM
